Legend:
[1] = biological target: cytoplasmic dynein-1 heavy chain, naturally occurring in Vero cells (African green monkey (endogenous in Vero)); assay: proximity ligation; Vero cells infected with ZIKV MR766 at MOI 1, fixed at 12 and 24 h.p.i.; mouse monoclonal anti-E and rabbit polyclonal anti-NTDyn
[2] = biological target: cytoplasmic dynein-1 heavy chain, naturally occurring in Vero cells (African green monkey (endogenous in Vero)); assay: proximity ligation; Vero cells infected with ZIKV MR766 at MOI 1, fixed at 18 h.p.i.; mouse monoclonal anti-E and rabbit polyclonal anti-NTDyn; PLA dots counted in 100 cells

Zika virus (ZIKV) envelope protein (E), MR766 strain (natural protein)
PLA dots per cell (12 and 24 h.p.i.) (PLA dots per cell) [1]: < 1
PLA dots per cell (18 h.p.i.) (PLA dots per cell) [2]: > 6
PLA dots per cell (mean, 18 h.p.i.) (PLA dots per cell) [2]: 2.9

Source: PMC9987375
